{"source": "patent US12503518B2", "about": "“Heparanase-neutralizing A54 monoclonal antibody” (TECHNION RESEARCH & DEVELOPMENT FOUNDATION LIMITED, priority 2020, dated 2025)", "key": {"[1]": {"target": "T1, recombinant human heparanase (Homo sapiens, UniProt Q9Y251)", "T1 construct": "purified recombinant active heparanase (200 ng) was pre incubated with the various hybridoma supernatants; recombinant active heparanase (200 ng) was preincubated with control mouse IgG or purified mAb A54", "T1 sequence (Q9Y251 158-543 limits assumed)": "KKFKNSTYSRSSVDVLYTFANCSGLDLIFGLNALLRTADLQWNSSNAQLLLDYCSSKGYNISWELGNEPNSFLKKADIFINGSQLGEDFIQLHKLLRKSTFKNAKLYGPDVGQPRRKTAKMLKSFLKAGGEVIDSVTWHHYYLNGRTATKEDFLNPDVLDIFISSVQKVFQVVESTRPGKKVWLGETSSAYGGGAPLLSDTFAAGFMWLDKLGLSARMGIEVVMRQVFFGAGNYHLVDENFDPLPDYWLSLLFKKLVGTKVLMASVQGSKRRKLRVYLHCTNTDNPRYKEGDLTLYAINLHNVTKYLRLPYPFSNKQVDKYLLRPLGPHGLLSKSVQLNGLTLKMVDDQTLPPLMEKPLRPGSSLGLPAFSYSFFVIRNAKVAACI", "T1 sequence (Q9Y251 36-109 limits assumed)": "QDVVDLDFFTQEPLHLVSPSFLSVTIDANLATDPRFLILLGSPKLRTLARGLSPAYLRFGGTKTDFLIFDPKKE", "assay": "heparanase activity assay: release of HS degradation fragments from 35S-labeled ECM", "assay_type": "biochemical", "method": "Cell lysates, heparanase activity and protein blotting. Preparation of cell lysates, protein blotting, and measurement of heparanase enzymatic activity were carried out as described (Arvatz et al. Faseb J 2011; 24(12):4969-76). For inhibition studies, highly purified recombinant heparanase (200 ng) was pre-incubated with the indicated antibody ([…]) for 30 min on ice under neutral pH conditions (pH 7.2) before being added to ^35S-labelled ECM, used as a naturally produced substrate for heparanase (Gingis-Velitski et al. 2007, ibid.).\nECM degradation assay. […] More detail about the preparation of this substrate and its use for the heparanase assay can be found in: Current Protocols in Cell Biology (Vlodavsky 2001; pp. 10.4.1-10.4.14). Briefly, sulfate [^35S] labeled ECM coating the surface of 35 mm tissue culture dishes, is incubated (4 h, 37° C., pH 6.0, 1 ml final volume) with recombinant human heparanase (200 ng/ml) in the absence and presence of the A54 mAb. The reaction mixture contains: 50 mM NaCl, 1 mM DTT, 1 mM CaCl2), and 10 mM buffer Phosphate-Citrate, pH 6.0. To evaluate the occurrence of proteoglycan degradation, the incubation medium is collected and applied for gel filtration on Sepharose 6B columns (0.9×30 cm). Fractions (0.2 ml) are eluted with PBS and counted for radioactivity. […]\nIn order to select the hybridoma clone that best inhibits heparanase enzymatic activity, supernatants of the various hybridomas, raised against the 65 kDa latent heparanase protein, were collected, pre-incubated with recombinant heparanase and examined for the capacity to inhibit the release of heparan sulfate (HS) degradation fragments from sulfate labeled ECM. […] The mixture was then applied onto ^35S-labeled ECM-coated dishes and heparanase activity was determined as described under “Materials and Methods” above.\nNext, the ability of purified mAb A54 to inhibit heparanase enzymatic activity was examined. […] The mixture was then applied onto dishes coated with ^35S-labeled ECM, and heparanase enzymatic activity was determined as described in ‘Methods’."}, "LPS-induced sepsis": {"test_system": "LPS-induced sepsis", "assay": "LPS-induced sepsis survival", "assay_type": "in vivo, C57BL/6 mice", "conditions": "500 μg/mouse 30 min before LPS (15 mg/kg, i.p.); monitored 8 days", "method": "In subsequent studies, the effect of mAb A54 on LPS-induced sepsis, was investigated. C57BL/6 mice (n=8) were treated with A54 mAb (500 μg/mouse) or Roneparstat (SST) (1.2 mg/mouse) or PBS as control, 30 min before LPS injection (15 mg/kg, i.p.). SST was given once again (1.2 mg/mouse) 16 hours after LPS administration. Survival of mice was monitored every 12 h for 8 days (FIG. 10)."}, "[2]": {"test_system": "Luc-CAG human myeloma cells", "assay": "CAG myeloma tumor growth in NOD/SCID mice, IVIS imaging", "assay_type": "in vivo", "conditions": "500 μg/mouse, 3 times/week from day 3; evaluated 3 weeks later; vs PBS; P=0.02", "method": "CAG myeloma. Luciferase-labeled CAG human myeloma cells (5×10^6) are injected into the tail vein of NOD/SCID mice. Three days after cell inoculation, mice are randomly assigned to 2 cohorts (5-10 mice each) receiving (a) vehicle (PBS); and (b) A54 mAb (500 μg/mouse, 3 times/week). Tumor development is inspected (once a week) by IVIS imaging following administration of luciferin (see below). At termination, mice are sacrificed the backbones are excised, fixed in formalin and following de-calcification with 10% EDTA solution are embedded in paraffin and subjected to histological and immunohistochemical analyses.\nIVIS imaging. […] Imaging is performed in real time, is non-invasive and provides quantitative data. […] Light emitted from the bioluminescent cells is detected by the IVIS camera system with images quantified for tumor burden using a log-scale color range set at 5×10^4 to 1×10^7 and measurement of total photon counts per second (PPS) using Living Image software (Xenogen).\nThe ability of mAb A54 to attenuate myeloma tumor development over time was examined. […] Tumor growth was evaluated 3 weeks later by IVIS imaging (FIGS. 5A and 5B). Quantification of luciferase signals is also shown graphically (FIG. 5C). […]"}}}
{"molecule": "mAb A54: heparanase-neutralizing murine monoclonal antibody, IgG1-Kappa; VH SEQ ID NO: 7, VL SEQ ID NO: 8; binds HBD-II of heparanase (antibody, listed as Mus musculus, V domains shown) VH: QVQLQQSGAELAKPGASVRMSCKASGYTFTNYWMHWVKQRPGQGLEWIGYINPTTGYTEYNQKFKDKATLTADKSSSTAYMQLSSLTSEDSAVYYCARGGAGYDYDEDYAMDYWGQGTSVTVSS VL: DIVLTQSPASLAVSLGQRATISCRASESVEYFGTSYMNWYQQKPGQPPKLLIYLASILESGIPARFSGSGSGTDFTLNIHPVEEEDAATYYCQQSNEDPYTFGGGTKLEIK", "values": [{"measurement": "inhibition of the enzyme", "setting": "[1]; 0.1 μg/ml antibody, preincubated 1 h with active heparanase (200 ng), FIG. 3B", "value": "~75", "unit": "%"}, {"measurement": "inhibition of heparanase enzymatic activity", "setting": "[1]; 1 μg/ml antibody, preincubated 1 h with active heparanase (200 ng), FIG. 3A", "value": "complete inhibition"}, {"measurement": "decrease in the amount of released sulfate labeled HS degradation products", "setting": "[1]; hybridoma supernatant pre-incubated 2 h on ice with recombinant active heparanase (200 ng), FIG. 1", "value": "~80", "unit": "%"}, {"measurement": "survival after LPS injection", "setting": "LPS-induced sepsis", "value": "effectively protects mice from LPS-induced sepsis"}, {"measurement": "myeloma growth rate (IVIS luciferase signal)", "setting": "[2]", "value": "marked reduction in the myeloma growth rate"}]}
